Key:
Experiment in all cases: ELISA: Fc-His proteins (1 nM) captured on anti-6-His antibody, antibody B 10 µg/mL with human IgG 100 µg/mL, HRP anti-human kappa light chain antibody, OD450 as % of mouse EphA4-Fc-His
[1] = target: T1, mouse EphB3 extracellular region-Fc-His protein (mouse; human, UniProt P54754 30-554)
T1 construct: extracellular domain; not shown: Fc region of human IgG1; histidine tag
T1 sequence (looked up): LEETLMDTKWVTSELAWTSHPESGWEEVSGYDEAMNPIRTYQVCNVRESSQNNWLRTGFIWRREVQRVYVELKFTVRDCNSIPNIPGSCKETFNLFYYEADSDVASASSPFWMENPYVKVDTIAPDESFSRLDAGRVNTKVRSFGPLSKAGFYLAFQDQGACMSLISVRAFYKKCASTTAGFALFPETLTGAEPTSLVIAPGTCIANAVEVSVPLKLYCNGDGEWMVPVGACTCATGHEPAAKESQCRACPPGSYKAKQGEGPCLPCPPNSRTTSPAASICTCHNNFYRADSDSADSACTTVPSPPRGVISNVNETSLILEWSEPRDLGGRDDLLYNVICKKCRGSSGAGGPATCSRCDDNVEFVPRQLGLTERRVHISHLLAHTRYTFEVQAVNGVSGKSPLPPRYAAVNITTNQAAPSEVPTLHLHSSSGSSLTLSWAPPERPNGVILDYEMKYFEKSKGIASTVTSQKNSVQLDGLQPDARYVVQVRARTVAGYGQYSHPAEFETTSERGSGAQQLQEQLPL
Experimental: (§1) Rabbit anti-6-His antibodies (Bethyl Laboratories) were coated onto the wells of a 96-well plate (Nunc). After incubating at 4° C. overnight, the wells were blocked at room temperature for 1 hour by 1% Block Ace (DS Pharma Biomedical). After washing 3 times with 0.05% Tween 20/PBS (Thermo […]), each Eph receptor of mouse extracellular region-Fc-His protein (final concentration 1 nM) was seeded into each well, and incubated at room temperature for 1 hour. After washing 3 times, human IgG solution (100 μg/mL, Sigma) and antibody B (10 μg/mL) were supplemented to the wells, and incubated at room temperature for 1 hour. Horseradish peroxidase-labeled goat anti-human Kappa Light Chain antibody (IBL) was added, and incubated at room temperature for 1 hour. After washing 3 times, TMBZ (3,3′,5,5′-tetramethylbenzidine, Sigma) solution was added to the wells, and upon confirmation of modest coloring, an equal amount of quenching solution (1 N H₂SO₄, Wako Pure Chemicals) was added to the wells, and absorbance at 450 nm was read by a microplate reader (PerkinElmer).

[2] = target: T2, mouse EphA1 extracellular region-Fc-His protein (mouse; human, UniProt Q60750 27-548)
T2 construct: extracellular domain; not shown: Fc region of human IgG1; histidine tag
T2 sequence (looked up): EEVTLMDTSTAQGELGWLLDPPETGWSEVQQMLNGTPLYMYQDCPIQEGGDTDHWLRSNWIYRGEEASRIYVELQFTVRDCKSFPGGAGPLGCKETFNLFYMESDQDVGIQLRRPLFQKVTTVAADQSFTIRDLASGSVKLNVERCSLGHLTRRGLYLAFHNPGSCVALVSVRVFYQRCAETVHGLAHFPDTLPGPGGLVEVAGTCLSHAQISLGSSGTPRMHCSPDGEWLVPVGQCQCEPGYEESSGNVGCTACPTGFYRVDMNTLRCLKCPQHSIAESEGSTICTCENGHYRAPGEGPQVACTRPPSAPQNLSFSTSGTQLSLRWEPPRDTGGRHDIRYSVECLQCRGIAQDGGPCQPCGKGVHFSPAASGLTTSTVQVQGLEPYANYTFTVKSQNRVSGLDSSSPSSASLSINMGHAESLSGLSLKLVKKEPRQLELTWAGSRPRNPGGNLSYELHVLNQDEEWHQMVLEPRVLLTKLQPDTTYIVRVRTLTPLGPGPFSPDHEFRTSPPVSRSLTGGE
Experimental: as §1

[3] = target: T3, mouse EphB4 extracellular region-Fc-His protein (mouse; human, UniProt P54761 16-539)
T3 construct: extracellular domain; not shown: Fc region of human IgG1; histidine tag
T3 sequence (looked up): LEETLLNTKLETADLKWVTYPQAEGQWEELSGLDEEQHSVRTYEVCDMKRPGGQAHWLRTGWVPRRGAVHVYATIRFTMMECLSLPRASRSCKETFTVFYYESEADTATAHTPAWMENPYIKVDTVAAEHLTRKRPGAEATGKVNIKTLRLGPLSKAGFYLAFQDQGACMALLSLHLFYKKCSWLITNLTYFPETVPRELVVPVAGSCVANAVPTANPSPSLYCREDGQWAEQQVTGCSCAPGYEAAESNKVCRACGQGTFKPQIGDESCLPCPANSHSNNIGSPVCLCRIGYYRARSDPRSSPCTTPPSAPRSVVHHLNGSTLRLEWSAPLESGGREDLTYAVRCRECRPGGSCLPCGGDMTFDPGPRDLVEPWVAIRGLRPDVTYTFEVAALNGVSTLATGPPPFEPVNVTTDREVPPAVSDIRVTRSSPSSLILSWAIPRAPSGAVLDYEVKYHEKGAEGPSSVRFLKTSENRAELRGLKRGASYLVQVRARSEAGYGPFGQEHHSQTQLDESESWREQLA
Experimental: as §1

Measured: binding result

B1: humanized anti-EphA4 monoclonal antibody (antibody B) (antibody, human IgG2, V domains shown)
VH: QVQLVESGGGVVQPGRSLRLSCAVSGFSLTRFGVHWVRQAPGKGLEWVAVIWRGGSTDYNAAFMSRLTISKDNSKNTVYLQMNSLRAEDTAVYYCAKESLFGVYYDYGYYSMDYWGQGTTVTVSS
VL: DIQMTQSPSSLSASVGDRVTITCRASQEISGYLSWLQQKPGKAPKRLIYAASTLDSGVPSRFSGSRSGTEYTLTISSLQPEDFATYYCLQYASYPLTFGGGTKVEIKR
notes: expressed in Expi293F cells; also called humanized antibody of antibody A; HK2-42 / L1-8
no binding (tested: 10 µg/mL): [1] | [2] | [3]

Source: patent US20240010735A1 (EISAI R AND D MANAGEMENT, published 2024)
